From patent publication US4371523A, “Reducing the aggregation of insulin in solution” (The Regents of the University of California, priority 1980, dated 1983)

Assays:
[1] = Controlled shaking of insulin solutions in 2-week minipumps equipped with small diameter catheters; assay type: physicochemical; conditions: shaken 8 days at 37°
Protocol: Minipumps (Alzet Osmotic Minipump No. 2002, Alza Corporation, Palo Alto, Calif.) that release their contents ([…]) at a constant rate ([…]) over a minimum of 14 days were filled with insulin or amino acid-insulin solutions. The minipumps were weighed before and after filling to determine the initial inner fluid volume. A 5 cm vinyl catheter (Iv. soft medical polyvinyl tubing; i.D.=0.023 inch; Bolab Inc. Co., Derry, N.H.) was attached to the tubes' exterior beyond their flanges.
Acid and neutral insulin solutions were prepared with and without glutamic or aspartic acids as described in Example I except insulin concentrations were 120 U/ml (approximately 5 mg/ml). Glutamic and aspartic acids were added to a concentration of 7 mg/ml. The final pH's of the amino acid insulin solutions were 3.3-3.5.
Pumps with attached catheters were placed in a 5 ml plastic vial containing a cotton wad and sufficient saline to immerse and activate the pump. The catheter passed through a 0.5 ml air space at the top of the fluid in the tube, the terminal end being submerged in the saline. The tubes were sealed with a plastic cap covered with parafilm. They were shaken at 37° in a metabolic shaking incubator (Dubnoff E.C.A.) at 80-100 r.p.m. for periods up to 8 days. Pumps were removed from the tubes on the 8th day after shaking; catheters were examined for precipitates by eye and residual contents were removed and centrifuged in microtubes to evaluate the precipitate.

[2] = biological target: T1, single component neutral pork zinc insulin (Sus scrofa, UniProt P01315); assay: Controlled shaking of zinc insulin solutions in test tubes, optical density at 600 nm; assay type: physicochemical; conditions: for Optical Density ± 1 × SE: zinc insulin 50 U/ml, OD at 600 nm
T1 construct: single component, neutral, pork, zinc-insulin (U.500 regular Iletin II., Eli Lilly & Company); purchased Eli Lilly & Company U.500 regular Iletin II
T1 sequence (P01315 25-54 limits assumed): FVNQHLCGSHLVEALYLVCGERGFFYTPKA
T1 sequence (P01315 88-108 limits assumed): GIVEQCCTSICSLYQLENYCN
Protocol: In vitro testing of single component neutral pork zinc insulin was undertaken with a number of added agents. Solutions at about neutral pH and at acid pH were tested. In addition, some testing was also undertaken with Na insulin.
The tests were conducted using plastic tybes (5 ml test tubes, Sarstedt, sealed by plastic caps covered with paraffin) each containing 2 ml of the insulin solutions noted below. The tubes were continuously agitated in a metabolic shaking incubator (Dubnoff E.C.A. Co.) at 60 to 80 r.p.m. and 37° C. for periods up to sixteen days.
The zinc insulin solutions were prepared by appropriate dilutions of highly concentrated (500 U/ml) single component, neutral, pork, zinc-insulin (U.500 regular Iletin II., Eli Lilly & Company). The unbuffered diluting fluid contained glycerin, 16 mg/ml, and phenol, 2 mg/ml of distilled water (Eli Lilly & Company). […] Final insulin concentration in all solutions was 50 U/ml (2 mg/ml).
Insulin solutions with amino acid added were prepared by addition of the dry amino acids (Sigma Company) to the neutral zinc or sodium insulin solutions. Final concentration of the amino acid additives was 7 mg per ml of insulin solution. pH was adjusted, when necessary, to 7.5 for neutral insulin mixtures and to 3.3-3.5 for acid insulin mixtures.
Several non-amino carboxylic acids, i.e., lactic acid, acetic acid, and citric acid, were added under the same conditions of concentration and pH as described for the amino acids.
The various insulin solutions, both as made up without additives and with additives, were shaken as noted above for up to sixteen days, at which time the solutions were examined with an optical densitometer at a wave length 600 nm. The optical density (OD) of each solution was an indication of the amount of aggregation present after the shaking period. The higher the optical density, the greater the aggregation in that solution.

Neutral Single Component Zinc Insulin: single component, neutral, pork, zinc-insulin (U.500 regular Iletin II, Eli Lilly & Company), diluted, no agent added
Number of Pumps with Aggregates in Catheter ([1]; pH 3.3, 120 U/ml, of 6 pumps): 4 | Number of Pumps with Precipitates ([1]; pH 3.3, 120 U/ml, of 6 pumps): 0 | Number of Pumps with Aggregates in Catheter ([1]; pH 7.4, 120 U/ml, of 3 pumps): 3 | Number of Pumps with Precipitates ([1]; pH 7.4, 120 U/ml, of 3 pumps): 3 | Time at which aggregates appeared ([2]; acidified (pH 2.9-3.3), unbuffered): by the fourth day | Aggregation of acidified unbuffered insulin solution (in words) ([2]; pH 2.9-3.3, unbuffered, through day 16): the aggregation was as great through day 16 as unacidified solutions | Optical Density ± 1 × SE ([2]; pH 2.9-3.3, shaken 16 days at 37° C.): 0.181 ± 0.03 | Optical Density ± 1 × SE ([2]; pH 7.4, shaken 16 days at 37° C., higher OD = greater aggregation): 0.603 ± 0.08
